The values below are quoted from earlier work in article PMC13242166.

By Kd is commonly meant the concentration at which binding is half-saturated.

The data set concerns the target TRH1 receptor (Homo sapiens) (UniProt P34981). The experiment in a line: radioligand binding.
Sequence of UniProt P34981 (P34981 whole entry): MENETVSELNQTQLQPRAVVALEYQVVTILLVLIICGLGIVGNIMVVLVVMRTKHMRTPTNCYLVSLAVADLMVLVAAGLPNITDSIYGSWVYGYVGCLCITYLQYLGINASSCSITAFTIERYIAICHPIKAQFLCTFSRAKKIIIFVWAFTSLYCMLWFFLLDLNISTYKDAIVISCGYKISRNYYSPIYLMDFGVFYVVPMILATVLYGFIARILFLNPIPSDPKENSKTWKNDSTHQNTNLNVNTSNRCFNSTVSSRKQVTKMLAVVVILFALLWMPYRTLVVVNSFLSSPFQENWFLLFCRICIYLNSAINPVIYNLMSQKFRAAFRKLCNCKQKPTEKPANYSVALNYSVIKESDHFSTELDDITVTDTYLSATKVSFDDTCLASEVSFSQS

For TRH (from UniProt P20396), the Kd is 13 nM.
